Experimental data as given in patent US6858707B1, “Hypersensitive response elicitor fragments which are active but do not elicit a hypersensitive response” (EDEN Bioscience Corporation, priority 1998, dated 2005).
Several values for one entry are separate records, joined by “and”; a condition that tells them apart may be missing. Identical values can stand only once.

B1: Fragment 5: amino acids 210-403 of SEQ ID NO: 23, C-terminal fragment (protein, listed as Erwinia amylovora)
chain: MGNGLSQLLGNGGLGGGQGGNAGTGLDGSSLGGKGLQNLSGPVDYQQLGNAVGTGIGMKAGIQALNDIGTHRHSSTRSFVNKGDRAMAKEIGQFMDQYPEVFGKPQYQKGPGQEVKTDDKSWAKALSKPDDDGMTPASMEQFNKAKGMIKRPMAGDTGNGNLQARGAGGSSLGIDAMMAGDAINNMALGKLGAA
B2: Fragment 14: amino acids 76-168 of SEQ ID NO: 23, internal fragment (protein, listed as Erwinia amylovora)
chain: MGGGLGGGLGNGLGGSGGLGEGLSNALNDMLGGSLNTLGSKGGNNTTSTTNSPLDQALGINSTSQNDDSTSGTDSTSDSSDPMQQLLKMFSEI
B3: Fragment 1: full length Erwinia amylovora hypersensitive response elicitor, amino acids 1-403 of SEQ ID NO: 23, pET28(b) clone, positive control (protein, listed as Erwinia amylovora)
chain: MSLNTSGLGASTMQISIGGAGGNNGLLGTSRQNAGLGGNSALGLGGGNQNDTVNQLAGLLTGMMMMMSMMGGGGLMGGGLGGGLGNGLGGSGGLGEGLSNALNDMLGGSLNTLGSKGGNNTTSTTNSPLDQALGINSTSQNDDSTSGTDSTSDSSDPMQQLLKMFSEIMQSLFGDGQDGTQGSSSGGKQPTEGEQNAYKKGVTDALSGLMGNGLSQLLGNGGLGGGQGGNAGTGLDGSSLGGKGLQNLSGPVDYQQLGNAVGTGIGMKAGIQALNDIGTHRHSSTRSFVNKGDRAMAKEIGQFMDQYPEVFGKPQYQKGPGQEVKTDDKSWAKALSKPDDDGMTPASMEQFNKAKGMIKRPMAGDTGNGNLQARGAGGSSLGIDAMMAGDAINNMALGKLGAA
B4: Fragment 7: amino acids 343-403 of SEQ ID NO: 23, smallest C-terminal protein (protein, listed as Erwinia amylovora)
chain: MTPASMEQFNKAKGMIKRPMAGDTGNGNLQARGAGGSSLGIDAMMAGDAINNMALGKLGAA
B5: Fragment 4: amino acids 169-403 of SEQ ID NO: 23, C-terminal fragment (protein, listed as Erwinia amylovora)
chain: MQSLFGDGQDGTQGSSSGGKQPTEGEQNAYKKGVTDALSGLMGNGLSQLLGNGGLGGGQGGNAGTGLDGSSLGGKGLQNLSGPVDYQQLGNAVGTGIGMKAGIQALNDIGTHRHSSTRSFVNKGDRAMAKEIGQFMDQYPEVFGKPQYQKGPGQEVKTDDKSWAKALSKPDDDGMTPASMEQFNKAKGMIKRPMAGDTGNGNLQARGAGGSSLGIDAMMAGDAINNMALGKLGAA
B6: Fragment 10: amino acids 1-168 of SEQ ID NO: 23, N-terminal fragment (protein, listed as Erwinia amylovora)
chain: MSLNTSGLGASTMQISIGGAGGNNGLLGTSRQNAGLGGNSALGLGGGNQNDTVNQLAGLLTGMMMMMSMMGGGGLMGGGLGGGLGNGLGGSGGLGEGLSNALNDMLGGSLNTLGSKGGNNTTSTTNSPLDQALGINSTSQNDDSTSGTDSTSDSSDPMQQLLKMFSEI
B7: Fragment 9: amino acids 1-104 of SEQ ID NO: 23, N-terminal fragment (protein, listed as Erwinia amylovora)
chain: MSLNTSGLGASTMQISIGGAGGNNGLLGTSRQNAGLGGNSALGLGGGNQNDTVNQLAGLLTGMMMMMSMMGGGGLMGGGLGGGLGNGLGGSGGLGEGLSNALND
B8: Fragment 17: amino acids 105-168 of SEQ ID NO: 23, internal fragment (protein, listed as Erwinia amylovora)
chain: MLGGSLNTLGSKGGNNTTSTTNSPLDQALGINSTSQNDDSTSGTDSTSDSSDPMQQLLKMFSEI
B9: Fragment 13: amino acids 76-209 of SEQ ID NO: 23, internal fragment (protein, listed as Erwinia amylovora)
chain: MGGGLGGGLGNGLGGSGGLGEGLSNALNDMLGGSLNTLGSKGGNNTTSTTNSPLDQALGINSTSQNDDSTSGTDSTSDSSDPMQQLLKMFSEIMQSLFGDGQDGTQGSSSGGKQPTEGEQNAYKKGVTDALSGL
B10: Fragment 15: amino acids 105-209 of SEQ ID NO: 23, internal fragment (protein, listed as Erwinia amylovora)
chain: MLGGSLNTLGSKGGNNTTSTTNSPLDQALGINSTSQNDDSTSGTDSTSDSSDPMQQLLKMFSEIMQSLFGDGQDGTQGSSSGGKQPTEGEQNAYKKGVTDALSGL
B11: Fragment 6: amino acids 267-403 of SEQ ID NO: 23, C-terminal fragment (protein, listed as Erwinia amylovora)
chain: MKAGIQALNDIGTHRHSSTRSFVNKGDRAMAKEIGQFMDQYPEVFGKPQYQKGPGQEVKTDDKSWAKALSKPDDDGMTPASMEQFNKAKGMIKRPMAGDTGNGNLQARGAGGSSLGIDAMMAGDAINNMALGKLGAA

Columns and labels:
[1] = tested on: tobacco (Nicotiana tabacum v. Xanthi) leaves; test: Induction of HR in tobacco by hrpN truncated proteins; assay type: in vivo; conditions: for HR titer: large scale purified protein, concentration down to which HR is elicited in tobacco, — = no HR; for HR elicitation in tobacco (in words): Example 12
Protocol: A 1.5 ml aliquot from the 50 ml cultures grown for small scale purification of the truncated proteins was centrifuged at 14,000 rpm for four minutes and re-suspended in an equal volume of 5 mM potassium phosphate buffer, pH 6.8. The cell suspension was sonicated for ca. 30 seconds then diluted 1:2 and 1:10 with phosphate buffer. Both dilutions plus the neat cell lysate were infiltrated into the fourth to ninth leaves of 10-15 leaf tobacco plants by making a hole in single leaf panes and infiltrating the bacterial lysate into the intercellular leaf space using a syringe without a needle. The HR response was recorded 24-48 hr post infiltration. Tobacco (Nicotiana tabacum v. Xanthi) seedlings were grown in an environmental chamber at 20-25° C. with a photoperiod of 12-h light/12-h dark and ca. 40% RH. Cell lysate was used for the initial HR assays (in order to screen the truncated proteins for HR activity) as the small scale urea purification yielded very little protein which was denatured due to the purification process.
The full length positive control protein elicited HR down to only 5-7 μg/ml. […] This false HR was likely due to an affinity of the imidazole used in the purification process to bind to one or several of the background proteins, thereby not completely dialyzing out.

TMV = test: Induction of systemic acquired resistance (SAR), TMV lesions on tobacco; assay type: in vivo, Nicotiana tabacum; conditions: tobacco sprayed with 20 μg/ml, reduction in TMV lesions vs buffer control
Protocol: Three tobacco (Nicotiana tabacum cv. Xanthi) plants with 8-12 leaves (ca. 75 day old plants) were used in the assay. One leaf of the tobacco plants was covered up and the rest of the leaves were sprayed with ca. 50 ml of a 20 μg/ml solution of the truncated proteins diluted with 5 mM potassium phosphate buffer. Five to seven days later two leaves (the unsprayed leaf and the sprayed leaf opposite and just above the unsprayed leaf) were inoculated with 20 μl of a 1.8 μg/ml solution of TMV along with a pinch of diatomaceous earth by rubbing the mixture along the top surface of the leaves. The TMV entered the plants through tiny lesions made by the diatomaceous earth. Ca. 3-4 days post TMV inolucation, the number of TMV lesions was counted on both leaves compared with the number of lesions on the negative control buffer treated leaves. Analyses were done to determine the efficacy of reducing the number of TWV lesions by the protein fragents compared to the buffer control. Percentage of efficacy was calculated as: Reduction in TMV lesions (% efficacy)=100×(1−mean # of lesions on treated leaves/mean # of lesions on buffer control leaves).

[2] = tested on: tomato (Lycopersicon spp. cv. Marglobe); test: Induction of growth enhancement (GE/PGE), tomato seed soak; assay type: in vivo; conditions: for PGE ht>buffer @20 μg/ml: tomato seeds soaked overnight at 20 μg/ml; for PGE ht>buffer @20 μg/ml / PGE ht>buffer @ 40 μg/ml / PGE ht>buffer @10 μg/ml: height vs buffer control; for PGE ht>buffer @20 μg/ml / PGE ht>buffer @10 μg/ml: >10% needed to pass; for PGE ht>buffer @10 μg/ml: tomato seeds soaked overnight at 10 μg/ml
Protocol: Sixty tomato (Lycopersicon spp. cv. […] The next morning, the sixty seeds were sewn in three pots and 12-15 days later and again 18-20 days later the heights of the 10 tallest tomato plants per pot were measured and compared with the heights of the control plants treated only with phosphate buffer. Analyses were done on the heights to determine if there was a significant difference in the height of the plants treated with the truncated proteins compared with the buffer control, and thereby determine whether the proteins induced growth enhancement.

Row | Molecule | HR titer [1] [µg/mL] | PGE ht>buffer @20 μg/ml [2] [%] | HR elicitation in tobacco (in words) [1] | PGE ht>buffer @10 μg/ml [2] [%] | further results
1 | c1c[nH]cn1 [Imidazole] | – | – | – | – | false HR response ([1]; imidazole at ca. 60 mM): did elicit a false HR response
2 | Fragment 20: amino acids 137-180 of SEQ ID NO: 23, smallest HR domain (STSQNDDSTSGTDSTSDSSDPMQQLLKMFSEIMQSLFGDGQDGT; listed as Erwinia amylovora) | 16 | 9 | – | – | Efficacy of TMV control (TMV; listed as 20): 64% and 58%
3 | B1 | – | 14 | did not elicit HR at a detectable level | 13 | Efficacy of TMV control (TMV; listed as 5): 77% and 78%; PGE ht>buffer @ 40 μg/ml [2]: 16% @ 40 μg/ml
4 | B2 | – | 20 | lost its HR activity | 18 | Efficacy of TMV control (TMV; listed as 14): 83% and 87%
5 | B3 | 5 to 7 | 11 | – | 12 | Efficacy of TMV control (TMV; listed as 1 (+control)): 84% and 72%
6 | B4 | – | 7 | – | 7 | –
7 | B5 | – | 12 | did not elicit HR | 9 | Efficacy of TMV control (TMV; listed as 4): 64% and 79%
8 | B6 | 1 | 5 | – | 13 | Efficacy of TMV control (TMV): 69%
9 | B7 | 3 | 8 | – | 4 | Efficacy of TMV control (TMV): 82%
10 | B8 | – | 16 | lost its HR activity | 19 | Efficacy of TMV control (TMV): 89%
11 | B9 | 5 | 4 | – | 7 | Efficacy of TMV control (TMV; listed as 13): 44% and 84%; PGE ht>buffer @ μg/ml ([2]; concentration figure missing in the cell): 18% @ μg/ml; enhanced growth at 60 μg/ml ([2]; tomato, 60 μg/ml): 18%
12 | B10 | 5 to 10 | 19 | – | 14 | Efficacy of TMV control (TMV; listed as 15): 57% and 67%
13 | B11 | – | 21 | – | 21 | Efficacy of TMV control (TMV; listed as 6): 70% and 72%; PGE ht>buffer @ 40 μg/ml [2]: 23% @ 40 μg/ml
